Columns and labels:
[1] = target: complex formed between CRBN/DDB1 and lenalidomide (UniProt Q96SW2 1-442; Q16531 2-1140); assay: TR-FRET displacement; lenalidomide
[2] = target: complex formed between CRBN/DDB1 and iberdomide (UniProt Q96SW2 1-442; Q16531 2-1140); assay: TR-FRET displacement; iberdomide
[3] = target: complex formed between CRBN/DDB1 and pomalidomide (UniProt Q96SW2 1-442; Q16531 2-1140); assay: TR-FRET displacement; pomalidomide
complex formed between CRBN/DDB1 and pomalidomide, sequence (Q96SW2 whole entry, chain 1 of 2): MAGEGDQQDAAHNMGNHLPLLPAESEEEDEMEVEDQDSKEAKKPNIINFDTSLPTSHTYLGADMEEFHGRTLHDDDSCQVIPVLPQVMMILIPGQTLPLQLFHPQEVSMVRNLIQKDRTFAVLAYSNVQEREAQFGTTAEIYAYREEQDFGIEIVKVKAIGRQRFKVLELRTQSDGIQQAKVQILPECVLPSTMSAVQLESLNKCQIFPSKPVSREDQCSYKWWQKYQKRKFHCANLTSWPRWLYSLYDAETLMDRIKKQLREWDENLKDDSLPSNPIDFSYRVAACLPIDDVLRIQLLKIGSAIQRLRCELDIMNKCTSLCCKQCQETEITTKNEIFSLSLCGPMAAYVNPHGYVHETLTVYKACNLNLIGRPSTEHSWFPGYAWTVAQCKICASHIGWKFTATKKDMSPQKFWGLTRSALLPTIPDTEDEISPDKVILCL
complex formed between CRBN/DDB1 and pomalidomide, sequence (Q16531 2-1140, chain 2 of 2): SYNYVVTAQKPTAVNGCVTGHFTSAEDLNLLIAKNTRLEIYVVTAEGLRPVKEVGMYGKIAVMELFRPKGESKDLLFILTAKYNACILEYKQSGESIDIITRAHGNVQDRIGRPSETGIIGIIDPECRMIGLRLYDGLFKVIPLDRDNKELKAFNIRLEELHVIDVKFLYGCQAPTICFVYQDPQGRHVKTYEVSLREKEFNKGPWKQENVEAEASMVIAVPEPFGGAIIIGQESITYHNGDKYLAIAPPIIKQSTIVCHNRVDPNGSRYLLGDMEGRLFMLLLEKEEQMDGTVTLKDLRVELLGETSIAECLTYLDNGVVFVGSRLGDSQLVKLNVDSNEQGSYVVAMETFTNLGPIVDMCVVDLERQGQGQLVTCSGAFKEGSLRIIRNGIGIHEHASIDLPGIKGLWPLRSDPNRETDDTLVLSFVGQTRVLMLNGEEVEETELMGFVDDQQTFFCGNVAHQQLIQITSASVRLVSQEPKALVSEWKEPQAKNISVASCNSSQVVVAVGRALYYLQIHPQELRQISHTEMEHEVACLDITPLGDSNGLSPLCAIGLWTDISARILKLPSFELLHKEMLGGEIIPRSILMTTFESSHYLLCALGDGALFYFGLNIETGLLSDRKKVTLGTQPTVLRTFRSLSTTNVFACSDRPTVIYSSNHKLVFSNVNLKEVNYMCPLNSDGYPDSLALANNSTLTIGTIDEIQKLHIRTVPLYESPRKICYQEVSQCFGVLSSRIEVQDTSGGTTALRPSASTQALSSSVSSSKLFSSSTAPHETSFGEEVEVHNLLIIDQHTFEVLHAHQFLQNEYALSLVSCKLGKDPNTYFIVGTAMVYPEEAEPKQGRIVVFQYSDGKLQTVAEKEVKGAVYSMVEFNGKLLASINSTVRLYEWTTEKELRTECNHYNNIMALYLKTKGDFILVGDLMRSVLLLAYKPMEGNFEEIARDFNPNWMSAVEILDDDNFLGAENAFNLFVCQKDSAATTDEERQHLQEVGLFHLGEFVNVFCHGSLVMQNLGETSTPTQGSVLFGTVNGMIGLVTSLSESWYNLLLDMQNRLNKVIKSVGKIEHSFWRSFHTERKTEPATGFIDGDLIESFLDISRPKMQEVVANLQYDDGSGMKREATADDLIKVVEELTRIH

complex formed between CRBN/DDB1 and iberdomide, sequence (Q96SW2 whole entry, chain 1 of 2): as the sequence (Q96SW2 whole entry, chain 1 of 2) above
complex formed between CRBN/DDB1 and iberdomide, sequence (Q16531 2-1140, chain 2 of 2): as the sequence (Q16531 2-1140, chain 2 of 2) above
complex formed between CRBN/DDB1 and lenalidomide, sequence (Q96SW2 whole entry, chain 1 of 2): as the sequence (Q96SW2 whole entry, chain 1 of 2) above
complex formed between CRBN/DDB1 and lenalidomide, sequence (Q16531 2-1140, chain 2 of 2): as the sequence (Q16531 2-1140, chain 2 of 2) above

Row | IC50 [1] [nM] | IC50 [2] [nM] | IC50 [3] [nM] | Binder
1 | 860 | 556 | 834 | iTAG2 (DCD23mut) (designed binder) PNVLMVHNESHTGEIPLQCEICGFTCEQAGNLLNHIELHSGEIPFKCHLCNYACRRRDAL
2 | 78.7 | 36.4 | 49.8 | iTAG1 (DCD23) (designed binder) PNVLMVHKRSHTGERPLQCEICGFTCRQKGNLLRHIKLHSGEKPFKCHLCNYACRRRDAL
